Stoichiometry N data for two substances are collected here from paper PMC9097488.

The target in assay [1] is Crenotalea thermophila TIR-APAZ after removal of the 6xHis-MBP tag (Crenotalea thermophila). The assay can be described thus: SEC-MALS. (In general: In gel filtration, larger molecules generally elute earlier.)
Assay [2] addresses MapSPARTA complex (heterodimer of MapAgo and MapTIR-APAZ) (Maribacter polysiphoniae). Description: SEC-MALS.

In assay [1], “Crenotalea thermophila short pAgo (natural protein)” displayed a stoichiometry N of 1.
For the substance “MapSPARTA complex (heterodimer of MapAgo and MapTIR-APAZ)”, in assay [2], the stoichiometry N amounted to 4.

The term stoichiometry N denotes a count of units in the complex or per binding partner.
